Test results: patent US20100298415

Legend:
Experiment in all cases: competition
Settings in all cases: PS three linkages at 5' and 3' ends of both strands; 5' C6 amino linker conjugated to Co(III) Schiff base; not inhibited at 1 uM; EMSA
p105 (NF-kB) = target: T1, p105 (NF-kB) (UniProt P19838)
T1 sequence: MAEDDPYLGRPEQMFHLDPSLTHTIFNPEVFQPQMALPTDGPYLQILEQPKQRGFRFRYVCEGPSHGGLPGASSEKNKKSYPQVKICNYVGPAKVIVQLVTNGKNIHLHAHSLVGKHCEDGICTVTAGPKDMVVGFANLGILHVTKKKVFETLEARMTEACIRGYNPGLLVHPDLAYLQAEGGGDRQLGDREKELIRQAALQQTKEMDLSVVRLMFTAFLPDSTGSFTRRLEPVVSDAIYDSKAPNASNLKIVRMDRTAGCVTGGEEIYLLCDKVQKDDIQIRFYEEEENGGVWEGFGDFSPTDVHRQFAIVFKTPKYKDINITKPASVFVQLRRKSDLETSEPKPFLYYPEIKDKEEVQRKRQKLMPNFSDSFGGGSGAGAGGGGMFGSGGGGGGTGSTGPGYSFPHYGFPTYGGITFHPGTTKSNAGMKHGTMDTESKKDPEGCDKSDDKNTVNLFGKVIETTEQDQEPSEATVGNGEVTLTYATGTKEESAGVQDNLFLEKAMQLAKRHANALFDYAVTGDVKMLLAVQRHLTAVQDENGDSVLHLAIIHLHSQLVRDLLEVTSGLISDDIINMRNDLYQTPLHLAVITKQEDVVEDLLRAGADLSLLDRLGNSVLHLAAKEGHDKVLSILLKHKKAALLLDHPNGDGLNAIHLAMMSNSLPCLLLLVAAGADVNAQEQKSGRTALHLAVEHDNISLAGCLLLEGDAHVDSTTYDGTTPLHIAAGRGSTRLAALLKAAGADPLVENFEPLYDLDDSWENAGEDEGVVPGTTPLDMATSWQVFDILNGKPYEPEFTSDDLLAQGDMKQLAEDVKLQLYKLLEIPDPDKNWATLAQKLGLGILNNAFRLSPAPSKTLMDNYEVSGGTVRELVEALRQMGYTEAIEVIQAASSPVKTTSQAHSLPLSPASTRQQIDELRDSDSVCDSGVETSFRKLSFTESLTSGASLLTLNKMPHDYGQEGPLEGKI

MitF = target: T2, MitF (UniProt O75030)
T2 sequence: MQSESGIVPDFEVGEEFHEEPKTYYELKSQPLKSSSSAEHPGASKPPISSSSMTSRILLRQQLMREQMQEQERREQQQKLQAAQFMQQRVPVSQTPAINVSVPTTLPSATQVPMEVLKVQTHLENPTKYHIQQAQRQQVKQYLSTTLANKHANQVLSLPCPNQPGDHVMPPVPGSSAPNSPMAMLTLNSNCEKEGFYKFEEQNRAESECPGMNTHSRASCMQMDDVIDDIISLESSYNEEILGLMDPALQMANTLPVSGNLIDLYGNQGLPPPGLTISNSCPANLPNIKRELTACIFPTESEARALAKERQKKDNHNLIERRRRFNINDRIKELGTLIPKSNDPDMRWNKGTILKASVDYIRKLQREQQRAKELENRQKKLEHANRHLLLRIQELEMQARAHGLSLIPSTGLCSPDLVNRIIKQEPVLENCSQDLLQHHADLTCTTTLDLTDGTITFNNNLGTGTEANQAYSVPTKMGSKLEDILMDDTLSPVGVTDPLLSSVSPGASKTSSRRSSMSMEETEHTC

Lef-1 = Lef-1 (UniProt Q9UJU2)

Measured: activity

Lef-1, sequence (Q9UJU2 whole entry): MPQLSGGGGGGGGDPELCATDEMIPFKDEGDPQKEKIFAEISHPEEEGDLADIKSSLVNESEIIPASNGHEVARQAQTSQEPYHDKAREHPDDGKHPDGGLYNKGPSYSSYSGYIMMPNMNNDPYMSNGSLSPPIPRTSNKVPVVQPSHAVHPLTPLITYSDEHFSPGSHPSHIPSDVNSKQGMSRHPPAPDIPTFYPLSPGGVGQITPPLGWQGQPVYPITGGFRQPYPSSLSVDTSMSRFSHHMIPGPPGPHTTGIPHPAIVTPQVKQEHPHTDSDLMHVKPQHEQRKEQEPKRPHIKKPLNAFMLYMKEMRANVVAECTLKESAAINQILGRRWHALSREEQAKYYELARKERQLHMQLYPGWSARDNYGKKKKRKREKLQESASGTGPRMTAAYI

TACGACAGGTGTTGGGA (double strand) [Co(III)-Ebox]
> 1 µM: p105 (NF-kB) | MitF | Lef-1
